{"source": "paper PMC11234457", "about": "“Antitumor Effect of Anti‐c‐Myc Aptamer‐Based PROTAC for Degradation of the c‐Myc Protein”", "binders": {"B1": {"name": "MA9 (ssDNA)", "DNA": "CGTTACTTCTGTTCGTTCTCATGGCGAACCCTGTATGGCGCGTAAGTCGGGGAGTAACGTCTGCCTAGTTCCTTGTCTGATCTCCA"}, "B2": {"name": "MA9C1-mut (structured_DNA)", "DNA": "CGTTAATTCTGTTCGTTCTCATGGCGAACCCTGTATGACACGTTTGACGGGGAGTAACG"}, "B3": {"name": "MA9C1 (structured_DNA)", "DNA": "B2 DNA with A6C, A38G, A40G, T44A, T45A, A47T"}, "B4": {"name": "ProMyc (structured_DNA)", "DNA": "B2 DNA with A6C, A38G, A40G, T44A, T45A, A47T", "modifications": "5' NH2-C6 linked to pomalidomide-PEG4"}, "B5": {"name": "ProMyc-VHL (structured_DNA)", "DNA": "B2 DNA with A6C, A38G, A40G, T44A, T45A, A47T", "modifications": "5' NH2-C6 linked to (S,R,S)-AHPC-PEG5"}}, "key": {"c-Myc [1]": {"molecular_target": "T1, c-Myc (Homo sapiens, UniProt P01106 16-454)", "T1 sequence (P01106 16-454)": "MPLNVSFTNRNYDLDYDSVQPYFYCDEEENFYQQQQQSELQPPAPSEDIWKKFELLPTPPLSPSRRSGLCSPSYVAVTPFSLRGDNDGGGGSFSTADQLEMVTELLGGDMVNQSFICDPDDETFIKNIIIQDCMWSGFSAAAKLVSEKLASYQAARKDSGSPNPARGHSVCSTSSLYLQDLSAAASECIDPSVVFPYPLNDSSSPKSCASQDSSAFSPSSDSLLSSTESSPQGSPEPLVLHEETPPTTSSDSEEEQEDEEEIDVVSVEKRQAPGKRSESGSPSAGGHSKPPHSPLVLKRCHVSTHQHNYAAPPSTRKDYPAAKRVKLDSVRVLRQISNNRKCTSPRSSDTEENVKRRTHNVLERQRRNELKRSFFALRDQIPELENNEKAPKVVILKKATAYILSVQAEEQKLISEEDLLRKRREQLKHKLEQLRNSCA", "assay": "ELISA; 200 nM aptamer, 100 ng c-Myc/well; ELISA: c-Myc coated on microplate (100 mM NaHCO3 pH 9.6, 4 C overnight), 2% BSA in PBST block, binding buffer (composition not in material), RT 30 min", "settings": "protein: commercial; tags: none (untagged); label: 5' biotin (ELISA, pull-down); FAM (flow)"}, "c-Myc [2]": {"molecular_target": "T1, c-Myc", "assay": "ELISA; ELISA: c-Myc coated on microplate (100 mM NaHCO3 pH 9.6, 4 C overnight), 2% BSA in PBST block, binding buffer (composition not in material), RT 30 min", "settings": "protein: commercial; tags: none (untagged)"}, "c-Myc [3]": {"molecular_target": "T1, c-Myc", "assay": "ELISA; comparable to MA9; ELISA: c-Myc coated on microplate (100 mM NaHCO3 pH 9.6, 4 C overnight), 2% BSA in PBST block, binding buffer (composition not in material), RT 30 min", "settings": "protein: commercial; tags: none (untagged); label: 5' biotin; FAM; cy3; cloverleaf (predicted)"}, "c-Myc [4]": {"molecular_target": "T1, c-Myc", "assay": "competition ELISA; 200 nM ProMyc, 50 ng c-Myc; ELISA: c-Myc coated on microplate (100 mM NaHCO3 pH 9.6, 4 C overnight), 2% BSA in PBST block, binding buffer (composition not in material), RT 30 min", "settings": "protein: commercial; tags: none (untagged); cloverleaf (predicted)"}, "c-Myc [5]": {"molecular_target": "T1, c-Myc", "assay": "competition ELISA; affinity consistent with ProMyc; ELISA: c-Myc coated on microplate (100 mM NaHCO3 pH 9.6, 4 C overnight), 2% BSA in PBST block, binding buffer (composition not in material), RT 30 min", "settings": "protein: commercial; tags: none (untagged); cloverleaf (predicted)"}}, "note": "Positions count from the first letter of the chain named.", "data": [{"binder": "B1", "values": [{"measurement": "binding result", "setting": "c-Myc [1]", "value": "binds"}]}, {"binder": "B2", "values": [{"measurement": "binding result", "setting": "c-Myc [2]", "value": "no binding"}]}, {"binder": "B3", "values": [{"measurement": "binding result", "setting": "c-Myc [3]", "value": "binds"}]}, {"binder": "B4", "values": [{"measurement": "binding result", "setting": "c-Myc [4]", "value": "binds"}]}, {"binder": "B5", "values": [{"measurement": "binding result", "setting": "c-Myc [5]", "value": "binds"}]}]}
